Source: patent publication US20210253725A1 (BIONTECH, published 2021)

T1: CD27 expressed on the cell surface (HT1080_CD27 cells) (human, UniProt P26842 20-260)
T1 construct: whole, on cells; also called K562_CD27
T1 sequence (looked up): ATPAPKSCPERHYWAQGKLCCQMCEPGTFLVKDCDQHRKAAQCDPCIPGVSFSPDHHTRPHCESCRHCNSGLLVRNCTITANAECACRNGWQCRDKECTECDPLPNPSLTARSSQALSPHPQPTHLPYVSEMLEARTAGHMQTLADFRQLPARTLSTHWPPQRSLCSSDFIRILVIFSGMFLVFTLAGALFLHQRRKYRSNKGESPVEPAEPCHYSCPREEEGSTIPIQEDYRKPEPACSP

T2: CD27 protein (His-tagged, Sino Biological Inc. 10039-H08B1) (human, UniProt P26842 20-192)
T2 construct: bought; coated onto ELISA plates; also called human CD27; recombinant protein; not shown: His tag
T2 sequence (looked up): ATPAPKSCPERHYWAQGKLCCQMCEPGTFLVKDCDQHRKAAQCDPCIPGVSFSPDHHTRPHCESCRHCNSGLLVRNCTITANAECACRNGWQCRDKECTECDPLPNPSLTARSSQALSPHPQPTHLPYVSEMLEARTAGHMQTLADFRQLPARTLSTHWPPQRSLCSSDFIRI


Legend:
[1] = biological target: T1, CD27 expressed on the cell surface …; assay: cellular binding assay, HT1080_CD27 cells
[2] = biological target: T1, CD27 expressed on the cell surface …; assay: cell-based or functional assay
[3] = biological target: T2, CD27 protein (His-tagged, Sino …); assay: ELISA on coated His-tagged CD27
Also: test concentration or dose not given here.

Row | Binder | Cellular binding assay [RFU] [1] [RFU] | IL-8, cross-linked by F(ab')2 fragment [abs. corr.] [2] [abs. corr.] | IL-8 [abs. corr.] [2] [abs. corr.] | ELISA [abs. corr.] [3] [abs. corr.]
1 | P018.S.01.A.E05 (antibody, V domains shown, V regions on human Ig constant parts; also called AB27_17) VH: QEQLVESGGGLVQPEGSLTLTCTASGFSFSSRYYMCWVRQAPGKGLEWIACIAPDVSGSAYYATWAKGRITISETSSTTVTLRMTSLTAADTAIYFCARSVPGSLFYFQLWGPGTVVTVSS VL: AAVLTQTPPSVSAAVGGTVTIKCQSSQSVYNKNEFSWYQQKPGQPPKLLIYDASTLASGVPSRFKGSGSGTQFTLTISDLESDDAATYYCQGSYYSSGSYTAFGGGTEVVVK | 420 | 1.33 | 0.209 | 3.22
2 | P018.S.03.A.D03 (antibody, V domains shown, V regions on human Ig constant parts; also called AB27_48) VH: QEQLVESGGGLVQPEGSLTLTCTASGFSFNNNYVMSWVRQAPGKGLEWIGTIYVVSGSTYYASWVNGRFSISKTSSTTVTLQMTSLTDADTATYFCARDQLYNSGYDFDLWGPGTLVIVSS VL: AQVLTQTASPVSAAVGSTVTISCQSSQSVYNNNELSWYQQKPGQPPKLLIYQASKLASGVSSRFSGSESGTQFTLTISGVQSDDAATYYCQGTYYRSGLDNGFGGGTEVVVK | 320 | 1.05 | 0.281 | 3.22
3 | P018.S.03.A.G03 (antibody, V domains shown, V regions on human Ig constant parts; also called AB27_57) VH: QEHLEESGGGLVQPEGSLTLTCKASGFDFSSNYYMSWVRQAPGTGLEWIACIDSGSSGSTWYASWVKGRFTISKTSSTTVTLQMTSLTDADTAAYFCVRDDVGSSYEYYFSLWGPGTLVTVSS VL: DVVMTQTPASVSEPVGGTVTIKCQASQSIGSFLGWYQQKPGQPPKLLIYQASKLASGVPSRFKGSGSGTEYTLTISDLESADAAAYYCQTYFGSDSYVFGGGTEVVVK | 292 | 1.58 | 0.546 | 3.21
4 | P018.S.03.A.D06 (antibody, V domains shown, V regions on human Ig constant parts; also called AB27_51) VH: QSLEESGGRLVTPGTPLTLTCTASGFSLSSYWMSWVRQAPGKGLEWIGYIYAGSGSAYYASWVKGRFTISKTSTTVDLKISSPTTEDTATYFCGRGNYDGYINVYDLWGPGTLVTVSS VL: DVVMTQTPSSVEAAVGGTVTIKCQASQSIGSYLAWYQKKPGQPPKLLIYAAANLAAGVPSRFKGSGSGTDFTLTINDLESADAATYYCQNNNGAYGSAYVGAFGGGTEVVVK | 360 | 1.05 | 0.245 | 3.19
5 | P018.S.01.A.C05 (antibody, V domains shown, V regions on human Ig constant parts; also called AB27_9) VH: QSLEESGGGLVQPEGSLTLTCTASGFSFSSRYYMCWVRQAPGKGLELIACIDTSSGSTWYASWAKGRFTVSKTSSTTVTLQMTSLTAADTATYFCARDLYHENSDGDWWGPGTLVTVSS VL: AFELTQTPSSVEAAVGGTVTIKCQASESINNYLAWYQQKPGQPPKLLIYKASTLASGVSSRFKGSGSGTDFTLTISGVQSDDAATYYCQSYYGASGSGSNVFGGGTEVVVK | 349 | 1.4 | 0.327 | 3.19
6 | P018.S.02.A.G04 (antibody, V domains shown, V regions on human Ig constant parts; also called AB27_39) VH: QSLEESGGRLVTPGGSLTLTCTVSGIDLSSYAMGWVRQAPGKGLEYIGIIYTSNRTHYATWAKGRFTISKSSTTVDLKATSLTTEDTATYFCGRYGRGSGGYYYGMDLWGPGTLVTVSS VL: DIVMTQTPASVEAAVGGTVTIKCQASQSGDNYCSWYQQKPGQPPKLLIYQASKLTSGVPSRFRGSRSGTEYTLTISDLESADAATYYCQNYCAGSGVCLGIAFGGGTEVVVK | 196 | 1.67 | 0.205 | 3.19
7 | P018.S.04.A.C05 (antibody, V domains shown, V regions on human Ig constant parts; also called AB27_70) VH: QSVEESGGRLVTPGTPLTLTCTVSGFSLNYYSMAWVRQVPGEGLEWIGTINTGGGTYYASWAKGRFTISKTSTTVDLKMTSLTAADTATYFCARSDGTGITYYNLWGQGALVTVSS VL: ALVMTQTASPVSAAVGGTVTINCQASETIYSNLAWYQQKQGQPPKLLIYRASNLASGVPSRFSGSESGTQFTLTISGVQSDDAATYYCQGYYNTGITGFGGGTEVVVK | 292 | 1.43 | 0.382 | 3.17
8 | P018.S.01.A.G06 (antibody, V domains shown, V regions on human Ig constant parts; also called AB27_24) VH: QSLEESGGGLFKPTDTLTLTCTVSGIDLSRYAMGWVRQAPGKGLEYIGIISVGGGTYYANWIKGRFTISSTSTTVDLKITSPTTEDTATYFCARSPYASTSASAFNLWGPGTLVTVSS VL: AFELTQTPSSVEAAVGGTVTIKCQASQSIYSYLSWYQQKPGQPPKLLIYEASKLASGVPSRFSGSGSGTQFTLTISDLESADAATYYCQSYSNTNTNTFGGGTEVVVK | 313 | 1.09 | 0.491 | 3.17

Continued, values first:

Row | Cellular binding assay [RFU] [1] [RFU] | IL-8, cross-linked by F(ab')2 fragment [abs. corr.] [2] [abs. corr.] | IL-8 [abs. corr.] [2] [abs. corr.] | ELISA [abs. corr.] [3] [abs. corr.] | Binder
9 | 342 | 1.64 | 0.276 | 3.21 | P018.S.08.A.A03 (antibody, V domains shown, V regions on human Ig constant parts; also called AB27_136) VH: QSLEESGGRLVTPGTPLTLTCTASGFSLSSYGMIWVRQAPGKGLEWIGMIIDVTYTYYASWAKGRFTISKTSTTVDLKMTSLTTEDTATYFCARTPGYGIYAYGNLWGQGTLVTVSS VL: AQVLTQTPSPVSAAVGGTVTISCQSSQSVYGNNWLAWYQQKPGQPPKLLIYYASTLASGVPSRFKGSGSGTQFTLTISEVQSDDAATYYCQGYYSSAAYVFGGGTEVVVK
10 | 360 | 1.56 | 0.079 | 3.21 | P018.S.10.A.C03 (antibody, V domains shown, V regions on human Ig constant parts; also called AB27_172) VH: QSVEESGGRLVTPGTPLTLTCTVSGFSLSSYYMIWVRQAPGKGLEWIGIINTSGGAYYATWANGRFTISRTSTTVDLKITSPTTEDTATYFCARYLDNGFYCPDLWGQGTLVIVSS VL: DIVMTQTPSSVSEAVGGTVTIKCQASEDIYTLLAWYQQKPGQPPKLLIYKASILASGVSSRFKGGGSGADFTLTISDLESADAATYYCQSTYYGAAYIGAFGGGTEVVVK
11 | 317 | 1.15 | 0.055 | 3.2 | P018.S.07.A.E05 (antibody, V domains shown, V regions on human Ig constant parts; also called AB27_126) VH: QSLEESGGRLVTPGGSLTLTCTVSGIDLSSYAMIWVRQAPGKGLEWIGYIYGGSGSTWYASWAKGRFTISKTSSTTVDLKMTSLTTEDTATYFCARAYDSGYIGNSFYIFDPWGPGTLVTVSS VL: DIVMTQTPASVSATVGGTVTIKCQASQSISSRLAWYQQKPGQPPKLLIYSASTLASGVSSRFRGSGSGTEFTLTISDLESADGATYYCAGYGGLGITAFGGGTEVVVK
12 | 353 | 2.17 | 0.872 | 3.52 | P018.S.09.A.E05 (antibody, V domains shown, V regions on human Ig constant parts; also called AB27_155) VH: QSLEESGGRLVTPGTPLTLTCTVSGIDLSRYDMSWVRQAPGKGLEWIGFIGASGSTYYASWVKGRFTISKTSTTVDLKITSPTTEDTATYFCAREETDSRGYYYSLWGPGTPVTVSS VL: ALVMTQTPASVEAAVGGTVTINCQASQSISDLLGWYQQKPGQPPKLLIYDASDLASGVPSRFSGSGSGTEFTLTISGVQSDDAATYYCQQGYSINNVDNAFGGGTEVVVK
13 | 177 | 1.74 | 0.274 | 3.16 | P018.S.07.A.G04 (antibody, V domains shown, V regions on human Ig constant parts; also called AB27_130) VH: QSLEESGGRLVTPGTPLTLTCTVSGIDLSSYAMGWVRQAPGKGLEYIAIIYTTNRTHYATWAKGRFTISKSSTTVDLKATSLTTEDTATYFCGRYGRGSGGYYYGMDLWGPGTLVTVSS VL: DIVMTQTPASVEAAVGGTVTIKCQASQSGDNYCSWYQQKPGQPPKLLIYQASKLTSGVPSRFRGSRSGTEYTLTISDLESADAATYYCQNYCAGSGVCLGIAFGGGTEVVVK
14 | 333 | 1.04 | 0.08 | 3.19 | P018.S.10.A.B01 (antibody, V domains shown, V regions on human Ig constant parts; also called AB27_166) VH: QSLEESGGRLVTPGTPLTLTCTASGFSLSSYYMSWVRQAPGKGLEWIGIIDRAGTTYYATWAKGRFTISRTSTTVDLKMTSPTTEDTGTYFCARNFIYGVGTYYGSDLWGQGTLVTVSS VL: DVVMTQTPASVSDPVGGTVTIKCQASESISRRLAWYQQKPGQPPKLLIYGASDLASGVPSRFSGSGSGTEFTLTISGVQSDDAATYYCQDTDYGSGHLGAFGGGTEVVVK
15 | 338 | 1.16 | 0.678 | 3.18 | P018.S.06.A.F04 (antibody, V domains shown, V regions on human Ig constant parts; also called AB27_109) VH: QQQLEESGGGLVKPEGSLTLTCKASGFTLSSYLMCWVRQAPGKGLELIGCIGTYSGATYYGSWAKDRFTIAKTSSTTVTLQMTSLTAADTATYFCARDYNFALWGPGTLVTVSS VL: AIVMTQTPSSKSVPVGDTVTINCQASESVYNNNYLSWFQQKPGQPPKLLIYGASTLTSGVPSRFKGSGSGTQFTLTISDVVSDDAATYYCAGYKSSWTDGNAFGGGTEVVVK
16 | 214 | 1.95 | 0.504 | 3.17 | P018.S.09.A.A05 (antibody, V domains shown, V regions on human Ig constant parts; also called AB27_145) VH: QSVEESGGRLVTPGTPLTLTCTVSGFSLSSYAMSWVRQAPGKGLEWIGYIWSGGTTDYASWAKGRFTISKTSTTVDLKITDPTTEDTATYFCARGLGDRGSSDYYMPLKLWGQGTLVTVSS VL: AAVLTQTPSPVSAAVGGTVTINCQASEDIESYLAWYQQKPGQPPKLLIYSTSNLASGVSSRFRGSGSGTQLTLTISDLESADAATYYCQCTYDGSSAVWGAFGGGTEVVVK
